# From the supplement of paper PMC9732359
# ± gives the uncertainty stated by the source.
# Test: protein stability index of a GFP-peptide fusion (yeast GPS) (PSI 1-4); higher = more stable; sorted into four equal gates, so the index is relative within each strain
# Outline: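 Tiled yeast protein peptides of 17 residues were each joined downstream of GFP, on plasmids that also express Cherry. The pooled library was maintained in yeast, and mid-log cultures in leucine-free medium were sorted into four equal gates on the GFP/Cherry ratio. Plasmids from every gate were amplified by PCR and sequenced on Illumina, with barcodes linking reads to strains. The protein stability index of a peptide is its gate-number-weighted read frequency summed over the gates.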
Sequence,protein stability index (doa10∆),protein stability index (pdr5∆),protein stability index (san1∆),protein stability index (ubr1∆)
ENMWPFSYQEVEFKLPK [CDC53],1.83 ± 0.048,2.19 ± 0.058,1.34 ± 0.076,2.47 ± 0.035
LNGGLQFVPELKEFTAK [FAS2],2.75 ± 0.11,2.72 ± 0.11,2.3 ± 0.092,1.83 ± 0.064
YMLIEEAASSNKSFIVD [ITC1],2.96 ± 0.078,2.91 ± 0.06,2.78 ± 0.041,2.9 ± 0.049
NNTHVGRQFCNRLSRIH [YLR018C/POM34],2.34 ± 0.12,2.69 ± 0.17,2.3 ± 0.23,1.95 ± 0.089
GIEYNRVTNTTSTDFPG [RPC40],3.33 ± 0.22,3.33 ± 0.14,2.73 ± 0.082,2.94 ± 0.096
SDSNANAAVAGVANTDT [SWI3],3.28 ± 0.063,3.33 ± 0.07,3.22 ± 0.044,2.91 ± 0.061
VELTYSLNNSDSLISGV [BRR2],2.73 ± 0.12,2.98 ± 0.085,3.14 ± 0.088,3.12 ± 0.051
KVPDSTYDMVGGLTKQI [RPT6],2.27 ± 0.15,2.63 ± 0.17,1.93 ± 0.22,2.57 ± 0.077
STDKLVQCHGSFATATC [SIR2],2.72 ± 0.066,2.67 ± 0.048,2.48 ± 0.063,2.76 ± 0.037
KKKRFEIKKWTAVAFWS [HRT1],1.97 ± 0.18,1.58 ± 0.12,1.55 ± 0.26,2.27 ± 0.1
FRYITTWENEFLDSQRV [PRP8],2.77 ± 0.065,2.69 ± 0.059,2.48 ± 0.061,3.03 ± 0.046
YAKFKRNTMMIQCQIDK [RGR1],2.23 ± 0.055,2.24 ± 0.051,2.1 ± 0.065,2.34 ± 0.033
LKLNHIIANINSFTKGN [SNU114],1.52 ± 0.059,2.15 ± 0.062,1.83 ± 0.054,1.84 ± 0.035
NIGTPSFNMAQIPQQLY [SNF5],1.93 ± 0.068,2.08 ± 0.072,2.17 ± 0.056,2.04 ± 0.047
RPDITMYCRPAPSDFSE [GRR1],2.16 ± 0.12,2.12 ± 0.15,2.97 ± 0.067,2.17 ± 0.076
GRSRDGGLRFGEMERDC [RPB2],2.86 ± 0.29,–,2.83 ± 0.17,–
DEEMTISQKLHDSILHS [RRP43],2.7 ± 0.052,2.74 ± 0.035,2.82 ± 0.03,2.92 ± 0.035
QPNEISFKYLSNNDEDD [RGR1],2.37 ± 0.053,2.29 ± 0.041,1.88 ± 0.072,2.36 ± 0.039
MSNIVGIEYNRVTNTTS [RPC40],3.36 ± 0.22,3.33 ± 0.13,2.73 ± 0.08,2.88 ± 0.096
FLNTPNNNINENELFND [SSN2],2.94 ± 0.059,3.06 ± 0.05,2.86 ± 0.054,2.88 ± 0.055
KTITSGLKYALATGNWG [RPB2],2.32 ± 0.066,2.33 ± 0.056,2.19 ± 0.079,2.31 ± 0.048
SFGNREEFINKLVKAMN [RPL7B],2.03 ± 0.13,1.94 ± 0.17,–,2.75 ± 0.073
IWNDVVYGEGTSRVTGI [YJL039C/NUP192],3.35 ± 0.15,3.4 ± 0.17,–,3.45 ± 0.091
SNTRTMTYKNKLTVCFD [MED2],2.51 ± 0.073,2.53 ± 0.11,1.46 ± 0.24,1.35 ± 0.056
SFATATCVTCHWNLPGE [SIR2],1.64 ± 0.068,1.97 ± 0.11,1.9 ± 0.084,1.92 ± 0.064
KSKKSWLNRLNNWLFGW [YMR153W/NUP53],2.81 ± 0.054,2.66 ± 0.046,2.51 ± 0.053,2.94 ± 0.041
KEYENHSGELMRQQSKE [SMC1],2.83 ± 0.1,2.85 ± 0.077,2.9 ± 0.05,3 ± 0.082
